Reference: patent US20250263440A1, “CD38-BINDING AGENTS AND USES THEREOF” (PeptiDream Inc., priority 2019, published 2025)
Where two headings read alike, the source gives them in different places. Blank lines part the entries; values can stand above or below the molecule they belong to. Starred links: 1 amine or outer side, 2 acyl side, 3 side chain; linkers in the order of their positions; H or OH if unused. Positions of bridges follow the written chain, without caps; N, C: chain ends. Non-standard residues stand in square brackets, D forms with d. Residues, ends and D or L forms follow the SMILES beside them. No end group written: not given here. F3G = 3-guanidinophenylalanine, N=C(N)Nc1cccc(C[C@H](N[*:1])C(=O)[*:2])c1; Trp(6-aza) = N[C@@H](Cc1c[nH]c2cnccc12)C(=O)O; Bip = N[C@@H](Cc1ccc(-c2ccccc2)cc1)C(=O)O; Nle(6-Ph) = N[C@@H](CCCCc1ccccc1)C(=O)O; Arg(Me2s) = CN=C(NC)NCCC[C@H](N)C(=O)O; Met(O2) = CS(=O)(=O)CC[C@H](N)C(=O)O; NMeF = CN[C@@H](Cc1ccccc1)C(=O)O; hArg = N=C(N)NCCCC[C@H](N)C(=O)O; hCit = NC(=O)NCCCC[C@H](N)C(=O)O; Ahp(2) = CCCCC[C@H](N)C(=O)O

How the values were obtained:
His-tagged CD38 [1] = molecular target: His-tagged CD38 (Homo sapiens, UniProt P28907); test: SPR assay (Biacore S200, Sensor Chip NTA, single-cycle kinetics) of SEQ ID NO.1 variants against His-tagged CD38; format: binding; conditions: for Kd: SPR Biacore S200, His-tagged CD38, calculated from ka and kd; for kon / koff: SPR Biacore S200, NTA chip, His-tagged CD38; for kon: read-out: Ka (association rate constant); for koff: read-out: Kd (dissociation rate constant)
Procedure: SPR assay was performed using Biacore S200 (Cytiva: Former GE Healthcare).
After the equilibration of Series S Sensor Chip NTA (produced by Cytiva: Former GE Healthcare) with Running Buffer (10 mM HEPES pH7.4, 150 mM NaCl, 0.05% Tween 20), followed by injection of 350 mM EDTA at a flow rate of 10 L/min for 60 seconds and […] NiCl2 at a flow rate of 10 L/min for 60 seconds, then 3 mM EDTA at a flow rate of 10 L/min for 120 seconds, sequently, to wash the sensor chip.
(§1) EDC/NHS mixture was injected at a flow rate of […] for 7 minutes to thereby activate the functional groups on sensor chip. His-tagged CD38 in Running Buffer (10 mM HEPES pH7.4, 150 mM NaCl, 0.05% Tween 20) was injected immobilized to at a flow rate of […]. For 7 minutes to immobilize the CD38 on the substrate surfaces of the sensor chip. Then Ethanolamine was injected at a flow rate of […] for 7 minutes.
(§2) 1.0 M Ethanolamine(aq.) was injected at a flow rate of 10 L/min for 420 seconds for capping. 10 mM peptides (which were synthesised described above) in DMSO were diluted to obtain 10 uM with Running Buffer, and prepared 100 nM, 50 nM, 25 nM, 10 nM, 5 nM of each peptide's solutions (Peptide Samples).
(§3) Using these Peptide Samples, kinetics of peptides against His-tagged CD38 was measured. The method adopted for sample measurement was a single-cycle kinetics method. The analysis was conducted using the evaluation software 1.1 provided with Biacore S200. A DMSO correction curve obtained by solvent correction measurements was applied for the analysis. Kinetics fitting was done on the difference data obtained by subtracting the baseline data from sample measurement data.
KD values were calculated based on the association rate constant (ka) and dissociation rate constant (kd).

[2] = molecular target: T1, Recombinant human CD38 protein (R&D Systems) (human, UniProt P28907 43-300); test: ELISA
His-tagged CD38 [3] = molecular target: T2, His-tagged CD38 (human, UniProt P28907 43-300, limits assumed); test: SPR (Biacore S200), His-tagged CD38 immobilised, single-cycle kinetics
T2 construct: The order of CD38 and tag is not known; not shown: His tag
Procedure: as §1, §2, §3

[4] = molecular target: T1, Recombinant human CD38 protein (R&D …); test: ELISA; remark: listed apart in the source

Kd (His-tagged CD38 [1]): 6.7 nM
kon (His-tagged CD38 [1]): 220000 M⁻¹ s⁻¹
koff (His-tagged CD38 [1]): 0.0015 s⁻¹
Molecule: CCCCC[C@@H]1NC(=O)[C@H](CCCCNC(N)=O)NC(=O)[C@H](C)NC(=O)CSC[C@@H](C(N)=O)NC(=O)[C@H](CC(=O)O)NC(=O)[C@H](CCCCc2ccccc2)NC(=O)[C@H](Cc2ccc(-c3ccccc3)cc2)NC(=O)[C@H](CC(C)C)NC(=O)[C@H](C(C)C)NC(=O)[C@H](CCC(=O)O)NC(=O)[C@H](CC(=O)O)NC(=O)[C@H](Cc2c[nH]cn2)NC(=O)[C@H](Cc2ccc(O)cc2)NC1=O [compound 33] ({CH2CO}-A[hCit][Ahp(2)]YHDEVL[Bip][Nle(6-Ph)]DC-NH2; thioether N-13)

kon (His-tagged CD38 [1]): 471000 M⁻¹ s⁻¹
koff (His-tagged CD38 [1]): 0.00223 s⁻¹
Molecule: CCCCC[C@@H]1NC(=O)[C@H](CCCNC(=N)N)NC(=O)[C@H](C)NC(=O)CSC[C@@H](C(N)=O)NC(=O)[C@H](CC(=O)O)NC(=O)[C@H](CCCCC)NC(=O)[C@H](Cc2ccc(-c3ccccc3)cc2)NC(=O)[C@H](CC(C)C)NC(=O)[C@H](C(C)C)NC(=O)[C@H](CCC(=O)O)NC(=O)[C@H](CC(=O)O)NC(=O)[C@H](Cc2c[nH]cn2)NC(=O)[C@H](Cc2ccc(O)cc2)NC1=O [compound 10] ({CH2CO}-AR[Ahp(2)]YHDEVL[Bip][Ahp(2)]DC-NH2; thioether N-13 (inferred); N-terminus and C-terminus assumed)

Kd (His-tagged CD38 [1]): 9.42 nM
kon (His-tagged CD38 [1]): 1.4e+06 M⁻¹ s⁻¹
koff (His-tagged CD38 [1]): 0.013 s⁻¹
Molecule: CCCCC[C@@H]1NC(=O)[C@H](CCCNC(=N)N)NC(=O)[C@H](C)NC(=O)CSC[C@@H](C(N)=O)NC(=O)[C@H](CC(=O)O)NC(=O)[C@H](CCCCC)NC(=O)[C@H](Cc2ccc(-c3ccccc3)cc2)NC(=O)[C@H](CCS(C)(=O)=O)NC(=O)[C@H](C(C)C)NC(=O)[C@H](CCCNC(=N)N)NC(=O)[C@H](CC(=O)O)NC(=O)[C@H](Cc2c[nH]cn2)NC(=O)[C@H](Cc2ccc(O)cc2)NC1=O [compound 15] ({CH2CO}-AR[Ahp(2)]YHDRV[Met(O2)][Bip][Ahp(2)]DC-NH2; thioether N-13)

Kd (His-tagged CD38 [1]): 2.6 nM
kon (His-tagged CD38 [1]): 480000 M⁻¹ s⁻¹
koff (His-tagged CD38 [1]): 0.0012 s⁻¹
Molecule: CCCCC[C@@H]1NC(=O)[C@H](CCCNC(=NC)NC)NC(=O)[C@H](C)NC(=O)CSC[C@@H](C(N)=O)NC(=O)[C@H](CC(=O)O)NC(=O)[C@H](CCCCc2ccccc2)NC(=O)[C@H](Cc2ccc(-c3ccccc3)cc2)NC(=O)[C@H](CC(C)C)NC(=O)[C@H](C(C)C)NC(=O)[C@H](CCC(=O)O)NC(=O)[C@H](CC(=O)O)NC(=O)[C@H](Cc2c[nH]cn2)NC(=O)[C@H](Cc2ccc(O)cc2)NC1=O [compound 31] ({CH2CO}-A[Arg(Me2s)][Ahp(2)]YHDEVL[Bip][Nle(6-Ph)]DC-NH2; thioether N-13)

Kd (His-tagged CD38 [1]): 10.9 nM
kon (His-tagged CD38 [1]): 790000 M⁻¹ s⁻¹
koff (His-tagged CD38 [1]): 0.0087 s⁻¹
Molecule: CCCCC[C@@H]1NC(=O)[C@H](CCCNC(=N)N)NC(=O)[C@H](C)NC(=O)CSC[C@@H](C(N)=O)NC(=O)[C@H](CC(=O)O)NC(=O)[C@H](CCCCC)NC(=O)[C@H](Cc2ccc(-c3ccccc3)cc2)NC(=O)[C@H](CC(C)C)NC(=O)[C@H](C(C)C)NC(=O)[C@H](CCC(=O)O)NC(=O)[C@H](CC(=O)O)NC(=O)[C@H](Cc2c[nH]c3cnccc23)NC(=O)[C@H](Cc2ccc(O)cc2)NC1=O [compound 22] ({CH2CO}-AR[Ahp(2)]Y[Trp(6-aza)]DEVL[Bip][Ahp(2)]DC-NH2; thioether N-13)

Binding Assay (larger values indicate stronger binding) [2]: 0.6
Molecule: {CH2CO}-AA[Ahp(2)]YHDGVL[Bip][Ahp(2)]DC (thioether N-13) [I-1 analogue with Ala at position 2 (A A Ahp Y H D G V L Bph Ahp D C)]

Binding Assay (larger values indicate stronger binding) [2]: 1.49
Molecule: {CH2CO}-AR[Ahp(2)]YHDAVL[Bip][Ahp(2)]DC (thioether N-13) [I-1 analogue with Ala at position 7 (A R Ahp Y H D A V L Bpb Ahp D C)]

Binding Assay (larger values indicate stronger binding) [2]: 0.93
Molecule: {CH2CO}-AR[Ahp(2)]YHAGVL[Bip][Ahp(2)]DC (thioether N-13) [I-1 analogue with Ala at position 6 (A R Ahp Y H A G V L Bph Ahp D C)]

Binding Assay (larger values indicate stronger binding) [2]: 0.3
Molecule: {CH2CO}-AR[Ahp(2)]YHDGAL[Bip][Ahp(2)]DC (thioether N-13) [I-1 analogue with Ala at position 8 (A R Ahp Y H D G A L Bph Ahp D C)]

Binding Assay (larger values indicate stronger binding) [2]: 0.28
Molecule: {CH2CO}-AR[Ahp(2)]YADGVL[Bip][Ahp(2)]DC (thioether N-13) [I-1 analogue with Ala at position 5 (A R Ahp Y A D G V L Bpb Ahp D C)]

Binding Assay (larger values indicate stronger binding) [2]: 0.08
Molecule: {CH2CO}-AR[Ahp(2)]YHDGVA[Bip][Ahp(2)]DC (thioether N-13) [I-1 analogue with Ala at position 9 (A R Ahp Y H D G V A Bph Ahp D C)]

Binding Assay (larger values indicate stronger binding) [2]: 1.79
Molecule: {CH2CO}-AR[Ahp(2)]YHDGVL[Bip][Ahp(2)]AC (thioether N-13) [I-1 analogue with Ala at position 12 (A R Ahp Y H D G V L Bph Ahp A C)]

Binding Assay (larger values indicate stronger binding) [2]: 0.11
Molecule: {CH2CO}-AR[Ahp(2)]AHDGVL[Bip][Ahp(2)]DC (thioether N-13) [I-1 analogue with Ala at position 4 (A R Ahp A H D G V L Bph Ahp D C)]

Kd (His-tagged CD38 [3]): 2.29 nM
B1: Circular peptide having amino acid sequence represented by SEQ ID NO.12 (peptide)
peptide: {CH2CO}-AR[Ahp(2)]YHD[hArg]VL[Bip][Ahp(2)]DC
modifications: thioether N-13; not fully specified; also: circular peptide, closure not given here

Binding Assay (larger values indicate stronger binding) [4]: 0.37
Molecule: {CH2CO}-ALA[NMeF]VLP[Bip]VWVC (thioether N-12) [I-2 analogue with Ala at position 3 (A L A MeF V L P Bph V W V C)]

Binding Assay (larger values indicate stronger binding) [4]: 0.41
Molecule: {CH2CO}-ALH[NMeF]VLP[Bip]VWAC (thioether N-12) [I-2 analogue with Ala at position 11 (A L H MeF V L P Bph V W A C)]

Binding Assay (larger values indicate stronger binding) [2]: 0.09
Molecule: {CH2CO}-AR[Ahp(2)]YHDGVLA[Ahp(2)]DC (thioether N-13) [I-1 analogue with Ala at position 10 (A R Ahp Y H D G V L A Ahp D C)]

Binding Assay (larger values indicate stronger binding) [4]: 0.09
Molecule: {CH2CO}-ALH[NMeF]VLPAVWVC (thioether N-12; also: structure as I-2) [I-2 analogue with Ala at position 8 (A L H MeF V L P A V W V C)]

Binding Assay (larger values indicate stronger binding) [2]: 0.11
Molecule: {CH2CO}-ARAYHDGVL[Bip][Ahp(2)]DC (thioether N-13) [I-1 analogue with Ala at position 3 (A R A Y H D G V L Bph Ahp D C)]

Binding Assay (larger values indicate stronger binding) [4]: 0.47
Molecule: {CH2CO}-ALH[NMeF]ALP[Bip]VWVC (thioether N-12) [I-2 analogue with Ala at position 5 (A L H MeF A L P Bph V W V C)]

Kd (His-tagged CD38 [3]): 9.44 nM
Molecule: {CH2CO}-AR[Ahp(2)]YHDGV[Met(O2)][Bip][Ahp(2)]DC (thioether N-13; not fully specified) [Circular peptide having amino acid sequence represented by SEQ ID NO.9]

Kd (His-tagged CD38 [3]): 2 nM
B2: Circular peptide having amino acid sequence represented by SEQ ID NO.29 (peptide)
peptide: {CH2CO}-A[F3G][Ahp(2)]YHDEVL[Bip][Ahp(2)]DC
modifications: thioether N-13; not fully specified; also: circular peptide, closure not given here

Binding Assay (larger values indicate stronger binding) [4]: 0.12
Molecule: {CH2CO}-ALH[NMeF]VLP[Bip]AWVC (thioether N-12) [I-2 analogue with Ala at position 9 (A L H MeF V L P Bph A W V C)]

Binding Assay (larger values indicate stronger binding) [2]: 0.2
Molecule: {CH2CO}-AR[Ahp(2)]YHDGVL[Bip]ADC (thioether N-13) [I-1 analogue with Ala at position 11 (A R Ahp Y H D G V L Bph A D C)]

Binding Assay (larger values indicate stronger binding) [4]: 0.84
Molecule: {CH2CO}-AAH[NMeF]VLP[Bip]VWVC (thioether N-12) [I-2 analogue with Ala at position 2 (A A H MeF V L P Bph V W V C)]

Binding Assay (larger values indicate stronger binding) [4]: 0.1
Molecule: {CH2CO}-ALHAVLP[Bip]VWVC (thioether N-12) [I-2 analogue with Ala at position 4 (A L H A V L P Bph V W V C)]

Binding Assay (larger values indicate stronger binding) [4]: 0.09
Molecule: {CH2CO}-ALH[NMeF]VAP[Bip]VWVC (thioether N-12) [I-2 analogue with Ala at position 6 (A L H MeF V A P Bph V W V C)]

Binding Assay (larger values indicate stronger binding) [4]: 0.11
Molecule: {CH2CO}-ALH[NMeF]VLA[Bip]VWVC (thioether N-12) [I-2 analogue with Ala at position 7 (A L H MeF V L A Bph V W V C)]

Binding Assay (larger values indicate stronger binding) [4]: 0.1
Molecule: {CH2CO}-ALH[NMeF]VLP[Bip]VAVC (thioether N-12) [I-2 analogue with Ala at position 10 (A L H MeF V L P Bph V A V C)]
